T1: endogenous 14-3-3ζ (YWHAZ) in A549 cells (human (endogenous in A549)), P63104
T1 chain: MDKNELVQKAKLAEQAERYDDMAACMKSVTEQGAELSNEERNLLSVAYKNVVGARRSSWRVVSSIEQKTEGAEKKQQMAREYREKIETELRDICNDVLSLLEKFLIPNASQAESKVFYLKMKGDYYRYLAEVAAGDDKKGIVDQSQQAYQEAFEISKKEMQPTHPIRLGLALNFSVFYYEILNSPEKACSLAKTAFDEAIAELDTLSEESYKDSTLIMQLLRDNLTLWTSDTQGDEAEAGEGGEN

T2: purified recombinant 14-3-3ζ, P63104
T2 chain: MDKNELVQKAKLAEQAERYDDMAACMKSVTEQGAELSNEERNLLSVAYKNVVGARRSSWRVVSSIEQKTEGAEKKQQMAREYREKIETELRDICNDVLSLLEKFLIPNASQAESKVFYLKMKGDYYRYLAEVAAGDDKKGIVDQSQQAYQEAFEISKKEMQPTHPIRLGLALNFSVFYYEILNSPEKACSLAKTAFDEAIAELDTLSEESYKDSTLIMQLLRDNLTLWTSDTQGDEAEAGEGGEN


Tests used:
Conditions in all cases: remark: other sources report otherwise
[1] = target: T1, endogenous 14-3-3ζ (YWHAZ) in A549 …; assay: cross-linking
[2] = target: T1, endogenous 14-3-3ζ (YWHAZ) in A549 …; assay: native gel or EMSA
[3] = target: T2, purified recombinant 14-3-3ζ, P63104; assay: cross-linking

Row | Binder | stoichiometry N [1] | stoichiometry N [2] | stoichiometry N [3]
1 | endogenous 14-3-3ζ (YWHAZ) in A549 cells, P63104 1-245 (natural protein) MDKNELVQKAKLAEQAERYDDMAACMKSVTEQGAELSNEERNLLSVAYKNVVGARRSSWRVVSSIEQKTEGAEKKQQMAREYREKIETELRDICNDVLSLLEKFLIPNASQAESKVFYLKMKGDYYRYLAEVAAGDDKKGIVDQSQQAYQEAFEISKKEMQPTHPIRLGLALNFSVFYYEILNSPEKACSLAKTAFDEAIAELDTLSEESYKDSTLIMQLLRDNLTLWTSDTQGDEAEAGEGGEN | 2 | 2 | –
2 | purified recombinant 14-3-3ζ, P63104 1-245 (natural protein) MDKNELVQKAKLAEQAERYDDMAACMKSVTEQGAELSNEERNLLSVAYKNVVGARRSSWRVVSSIEQKTEGAEKKQQMAREYREKIETELRDICNDVLSLLEKFLIPNASQAESKVFYLKMKGDYYRYLAEVAAGDDKKGIVDQSQQAYQEAFEISKKEMQPTHPIRLGLALNFSVFYYEILNSPEKACSLAKTAFDEAIAELDTLSEESYKDSTLIMQLLRDNLTLWTSDTQGDEAEAGEGGEN | – | – | 2
